Assay results reported in patent publication US20230025129A1 (KYMAB, published 2023).

Target: T1, human matriptase-2 ECD protein his tag (human, UniProt Q8IU80 78-811)
T1 construct: also called human MTP-2 ECD; huMTP-2
T1 sequence: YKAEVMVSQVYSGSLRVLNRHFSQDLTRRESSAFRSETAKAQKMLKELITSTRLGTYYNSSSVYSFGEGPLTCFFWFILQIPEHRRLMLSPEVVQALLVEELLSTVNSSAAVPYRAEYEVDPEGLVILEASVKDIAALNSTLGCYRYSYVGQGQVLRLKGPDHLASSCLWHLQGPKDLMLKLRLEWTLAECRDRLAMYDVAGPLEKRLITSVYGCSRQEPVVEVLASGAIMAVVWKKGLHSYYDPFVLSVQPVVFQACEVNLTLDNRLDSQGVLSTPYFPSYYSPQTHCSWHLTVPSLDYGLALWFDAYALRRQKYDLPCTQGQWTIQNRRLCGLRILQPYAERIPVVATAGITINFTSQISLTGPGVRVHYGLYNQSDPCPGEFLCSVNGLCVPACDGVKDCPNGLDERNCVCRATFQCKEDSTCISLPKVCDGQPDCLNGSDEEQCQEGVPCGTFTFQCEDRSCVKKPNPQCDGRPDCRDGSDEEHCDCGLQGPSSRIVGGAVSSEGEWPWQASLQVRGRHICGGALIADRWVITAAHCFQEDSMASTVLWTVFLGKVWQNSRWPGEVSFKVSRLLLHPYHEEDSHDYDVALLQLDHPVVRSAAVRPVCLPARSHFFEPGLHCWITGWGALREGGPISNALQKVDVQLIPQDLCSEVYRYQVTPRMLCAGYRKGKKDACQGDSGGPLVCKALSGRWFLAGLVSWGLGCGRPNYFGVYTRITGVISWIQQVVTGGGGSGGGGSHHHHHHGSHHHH
Assay: SPR, his-tagged MTP-2 ECD protein (Table W); true KD could not be measured accurately, very slow off-rate
Method: Off-rate screening was performed by surface plasmon resonance (SPR), using a Biacore 8K system (GE Healthcare). Anti-human Fc mix (˜1000 RU) were immobilised in both active and reference channels in HBS-P+ buffer (GE BR100671) pH 7.4. Anti-MTP-2 hulgG4PE antibodies were then captured for 60 sec at 10 μl/min at 1 μg/ml concentration (approximatively 35 and 50 RU were captured) only on the active channel. MTP-2 ECD protein analytes were then injected (at 100, 25, 6.25, 1.56 and 0 nM concentrations) for 120 sec (association time) at 30 μl/min and dissociation monitored for 600 sec. Multiple cycle kinetics mode was used with all 8 channels being used. Reference and background were subtracted from the sensorgrams for each antibody and data was fitted using a 1:1 interaction model in the Biacore evaluation software. Rmax, ka, kd globally fitted, RI=0.
NORI-011, NORI-008, NORI-003 and NORI-006 were all found to have cross-reactive binding to human, mouse, cyno and rat MTP-2 ECD proteins. […] The true KD value for NORI-008 could not be measured accurately for human or mouse MTP-2 due to a very slow off-rate.

Kd: 0.0169 pM
B1: NORI-008 (antibody, human IgG4 S228P, kappa, V domains shown)
VH: QVQLQESGPGLVKPSETLSLTCSVSGGSVSSGRYYWTWIRQPPGKGLEWIGYISNSGNTNYNPSLKSRVTISLDTSKKQFSLSLSAVTAADTAVYYCARGFIYDYWFDPWGQGSLVTVSS
VL: DSQMTQSPSSLSASVGDRVTITCQASQDIDNYLNWYQQRPGKAPKLLIYDASKLETGVPSRFSGSGSGTDFTFTISSLQPEDFATYYCQQYGNLPITFGQGTRLDIKR
notes: human IgG4PE, kappa, in the in vitro assays; a mouse IgG1 format was used in one in vivo study only; also called NORI-008 hulgG4PE; NORI-008 IgG
